From article PMC9482650, “Quantitative fragmentomics allow affinity mapping of interactomes” (Nature Communications, 2022)

Key:
Assay in all cases: holdup assay
Set-up in all cases: key: below the threshold = too weak to quantify, mostly under pKd 3.1 to 4
GRIP2_3, Q9C0E4 = target: GRIP2_3, Q9C0E4
FRMPD4, Q14CM0 = target: FRMPD4, Q14CM0
SNTB1, Q13884 = target: T1, SNTB1, Q13884
T1 sequence (Q13884 107-205, limits assumed, looked up): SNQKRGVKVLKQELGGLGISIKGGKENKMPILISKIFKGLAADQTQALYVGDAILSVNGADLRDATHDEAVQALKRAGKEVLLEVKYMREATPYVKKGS

AHNAK1, Q09666 = target: AHNAK1, Q09666
Chain of AHNAK1, Q09666 (Q09666 4-100): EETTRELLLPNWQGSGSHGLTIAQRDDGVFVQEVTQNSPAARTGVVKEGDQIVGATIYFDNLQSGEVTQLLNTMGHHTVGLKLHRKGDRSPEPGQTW

MAGI3_2, Q5TCQ9 = target: MAGI3_2, Q5TCQ9
Chain of MAGI3_2, Q5TCQ9 (Q5TCQ9 398-503): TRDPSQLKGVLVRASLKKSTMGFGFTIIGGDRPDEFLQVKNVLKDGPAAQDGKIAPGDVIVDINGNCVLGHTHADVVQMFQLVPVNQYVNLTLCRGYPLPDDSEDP

DVL3, Q92997 = target: T2, DVL3, Q92997
T2 sequence (Q92997 244-331, limits assumed, looked up): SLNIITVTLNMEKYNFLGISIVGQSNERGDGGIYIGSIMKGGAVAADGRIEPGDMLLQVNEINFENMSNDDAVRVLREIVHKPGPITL

SHANK1, Q9Y566 = target: T3, SHANK1, Q9Y566
T3 sequence (Q9Y566 658-767, limits assumed, looked up): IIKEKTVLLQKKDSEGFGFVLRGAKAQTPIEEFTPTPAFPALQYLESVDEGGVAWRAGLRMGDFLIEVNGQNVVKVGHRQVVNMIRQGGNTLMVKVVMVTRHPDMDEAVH

SIPA1L2, Q9P2F8 = target: T4, SIPA1L2, Q9P2F8
T4 sequence (Q9P2F8 945-1036, limits assumed, looked up): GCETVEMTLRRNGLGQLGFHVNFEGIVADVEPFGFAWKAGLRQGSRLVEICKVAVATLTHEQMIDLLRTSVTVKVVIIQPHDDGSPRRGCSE

DFNB31_3, Q9P202 = target: T5, DFNB31_3, Q9P202
T5 sequence (Q9P202 811-907, limits assumed, looked up): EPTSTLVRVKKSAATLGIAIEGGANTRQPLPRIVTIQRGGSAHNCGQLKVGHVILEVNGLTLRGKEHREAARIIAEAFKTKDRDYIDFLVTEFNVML

LNX1_2, Q8TBB1 = target: LNX1_2, Q8TBB1
Chain of LNX1_2, Q8TBB1 (Q8TBB1 371-470): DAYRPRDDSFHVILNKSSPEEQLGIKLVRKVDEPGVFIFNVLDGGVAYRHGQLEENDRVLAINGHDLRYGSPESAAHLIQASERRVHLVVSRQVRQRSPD

GRID2IP_1, A4D2P6 = target: GRID2IP_1, A4D2P6
Chain of GRID2IP_1, A4D2P6 (A4D2P6 1-87): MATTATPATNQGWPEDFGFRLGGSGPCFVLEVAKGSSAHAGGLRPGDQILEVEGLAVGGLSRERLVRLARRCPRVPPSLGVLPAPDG

DLG3_2, Q92796 = target: T6, DLG3_2, Q92796
T6 sequence (Q92796 221-321, limits assumed, looked up): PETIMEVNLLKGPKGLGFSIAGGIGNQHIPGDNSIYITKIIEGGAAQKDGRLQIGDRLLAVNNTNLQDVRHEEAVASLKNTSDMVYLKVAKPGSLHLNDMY

MPDZ_5, O75970 = target: T7, MPDZ_5, O75970
T7 sequence (O75970 695-796, limits assumed, looked up): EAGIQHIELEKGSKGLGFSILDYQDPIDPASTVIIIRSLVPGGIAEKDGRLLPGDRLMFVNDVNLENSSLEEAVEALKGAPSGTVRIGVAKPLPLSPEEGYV

LIN7C, Q9NUP9 = target: T8, LIN7C, Q9NUP9
T8 sequence (Q9NUP9 88-185, limits assumed, looked up): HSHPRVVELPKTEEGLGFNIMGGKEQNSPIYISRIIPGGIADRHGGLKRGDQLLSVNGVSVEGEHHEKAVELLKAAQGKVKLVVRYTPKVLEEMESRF

TJP1_2, Q07157 = target: TJP1_2, Q07157
Chain of TJP1_2, Q07157 (Q07157 181-274): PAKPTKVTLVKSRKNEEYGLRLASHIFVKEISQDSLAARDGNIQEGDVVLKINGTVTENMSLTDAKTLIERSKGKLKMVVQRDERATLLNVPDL

NHERF3_3, Q5T2W1 = target: T9, NHERF3_3, Q5T2W1
T9 sequence (Q5T2W1 238-333, limits assumed, looked up): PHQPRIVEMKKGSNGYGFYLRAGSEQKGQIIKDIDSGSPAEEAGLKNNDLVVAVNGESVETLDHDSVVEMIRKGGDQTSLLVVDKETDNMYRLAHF

FRMPD2_3, Q68DX3 = target: FRMPD2_3, Q68DX3
Chain of FRMPD2_3, Q68DX3 (Q68DX3 1073-1166): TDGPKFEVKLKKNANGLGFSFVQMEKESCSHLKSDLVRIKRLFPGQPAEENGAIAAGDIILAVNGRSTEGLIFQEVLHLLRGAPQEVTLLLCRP

GORASP2, Q9H8Y8 = target: GORASP2, Q9H8Y8
LNX2_2, Q8N448 = target: T10, LNX2_2, Q8N448
T10 sequence (Q8N448 334-432, limits assumed, looked up): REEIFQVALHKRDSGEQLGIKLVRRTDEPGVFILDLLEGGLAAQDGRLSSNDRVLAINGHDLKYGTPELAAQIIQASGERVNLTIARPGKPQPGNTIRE

GORASP1, Q9BQQ3 = target: GORASP1, Q9BQQ3
Chain of GORASP1, Q9BQQ3 (Q9BQQ3 1-208): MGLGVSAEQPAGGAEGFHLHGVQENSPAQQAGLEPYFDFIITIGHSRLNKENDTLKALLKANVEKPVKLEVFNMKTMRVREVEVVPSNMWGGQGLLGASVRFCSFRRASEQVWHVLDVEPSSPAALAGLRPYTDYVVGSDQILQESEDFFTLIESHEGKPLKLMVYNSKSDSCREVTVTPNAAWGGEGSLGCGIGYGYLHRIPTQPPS

NHERF3_4, Q5T2W1 = target: T11, NHERF3_4, Q5T2W1
T11 sequence (Q5T2W1 373-468, limits assumed, looked up): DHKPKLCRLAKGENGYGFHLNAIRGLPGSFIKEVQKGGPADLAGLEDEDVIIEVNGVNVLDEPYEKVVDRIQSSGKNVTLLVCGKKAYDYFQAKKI

Inadl_2, Q8NI35 = target: Inadl_2, Q8NI35
Chain of Inadl_2, Q8NI35 (Q8NI35 238-335): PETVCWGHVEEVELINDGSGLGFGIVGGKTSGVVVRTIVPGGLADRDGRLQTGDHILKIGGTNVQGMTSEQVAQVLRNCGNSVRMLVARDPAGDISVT

PICK1, Q9NRD5 = target: PICK1, Q9NRD5
Chain of PICK1, Q9NRD5 (Q9NRD5 17-115): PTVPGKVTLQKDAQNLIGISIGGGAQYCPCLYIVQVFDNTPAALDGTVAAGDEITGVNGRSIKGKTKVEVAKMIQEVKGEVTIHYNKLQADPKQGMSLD

GRIP1_5, Q9Y3R0 = target: T12, GRIP1_5, Q9Y3R0
T12 sequence (Q9Y3R0 568-668, limits assumed, looked up): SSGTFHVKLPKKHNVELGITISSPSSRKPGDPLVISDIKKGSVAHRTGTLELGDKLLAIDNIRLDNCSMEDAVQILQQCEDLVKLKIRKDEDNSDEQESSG

SCRIB_2, Q14160 = target: SCRIB_2, Q14160
Chain of SCRIB_2, Q14160 (Q14160 857-960): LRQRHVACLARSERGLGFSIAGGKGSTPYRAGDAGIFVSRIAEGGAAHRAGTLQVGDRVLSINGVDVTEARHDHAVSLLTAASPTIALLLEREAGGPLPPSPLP

[1] = plain residues with an end cap or a label only (N-terminal biotin on a linker: ado-ado)
[2] = plain residues with an end cap or a label only (N-terminal biotin on a linker: ahx)

Chain of GRIP2_3, Q9C0E4 (Q9C0E4 238-339): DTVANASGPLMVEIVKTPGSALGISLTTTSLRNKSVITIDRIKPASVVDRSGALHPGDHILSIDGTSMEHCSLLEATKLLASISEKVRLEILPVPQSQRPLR
Chain of FRMPD4, Q14CM0 (Q14CM0 67-160): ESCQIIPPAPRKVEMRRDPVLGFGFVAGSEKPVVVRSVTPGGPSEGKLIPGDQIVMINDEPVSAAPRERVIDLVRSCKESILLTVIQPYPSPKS

NISYRRESAI [KCNJ4, P48050]
pKd (GRIP2_3, Q9C0E4; [1]): below the threshold
pKd (FRMPD4, Q14CM0; [1]): below the threshold
pKd (SNTB1, Q13884; [1]): 4.03
pKd (AHNAK1, Q09666; [1]): below the threshold
pKd (MAGI3_2, Q5TCQ9; [1]): 4.9
pKd (DVL3, Q92997; [1]): below the threshold
pKd (SHANK1, Q9Y566; [1]): below the threshold
pKd (SIPA1L2, Q9P2F8; [1]): below the threshold
pKd (DFNB31_3, Q9P202; [1]): below the threshold
pKd (LNX1_2, Q8TBB1; [1]): below the threshold
pKd (GRID2IP_1, A4D2P6; [1]): below the threshold
pKd (DLG3_2, Q92796; [1]): 4.35
pKd (MPDZ_5, O75970; [1]): below the threshold
pKd (LIN7C, Q9NUP9; [1]): below the threshold
pKd (TJP1_2, Q07157; [1]): below the threshold
pKd (NHERF3_3, Q5T2W1; [1]): below the threshold
pKd (FRMPD2_3, Q68DX3; [1]): below the threshold
pKd (GORASP2, Q9H8Y8; [1]): below the threshold
pKd (LNX2_2, Q8N448; [1]): below the threshold
pKd (GORASP1, Q9BQQ3; [1]): below the threshold
pKd (NHERF3_4, Q5T2W1; [1]): below the threshold
pKd (Inadl_2, Q8NI35; [1]): below the threshold
pKd (PICK1, Q9NRD5; [1]): below the threshold
pKd (GRIP1_5, Q9Y3R0; [1]): below the threshold
pKd (SCRIB_2, Q14160; [1]): 3.69

QDEKVKESYV [ABCA1, O95477]
pKd (GRIP2_3, Q9C0E4; [2]): below the threshold
pKd (FRMPD4, Q14CM0; [2]): below the threshold
pKd (SNTB1, Q13884; [2]): 5.22
pKd (AHNAK1, Q09666; [2]): below the threshold
pKd (MAGI3_2, Q5TCQ9; [2]): 5.14
pKd (DVL3, Q92997; [2]): 3.7
pKd (SHANK1, Q9Y566; [2]): below the threshold
pKd (SIPA1L2, Q9P2F8; [2]): below the threshold
pKd (DFNB31_3, Q9P202; [2]): below the threshold
pKd (LNX1_2, Q8TBB1; [2]): below the threshold
pKd (GRID2IP_1, A4D2P6; [2]): below the threshold
pKd (DLG3_2, Q92796; [2]): 4.92
pKd (MPDZ_5, O75970; [2]): 3.63
pKd (LIN7C, Q9NUP9; [2]): 4.59
pKd (TJP1_2, Q07157; [2]): below the threshold
pKd (NHERF3_3, Q5T2W1; [2]): 3.51
pKd (FRMPD2_3, Q68DX3; [2]): 3.9
pKd (GORASP2, Q9H8Y8; [2]): 3.75
pKd (LNX2_2, Q8N448; [2]): 3.64
pKd (GORASP1, Q9BQQ3; [2]): 3.66
pKd (NHERF3_4, Q5T2W1; [2]): 3.5
pKd (Inadl_2, Q8NI35; [2]): 3.93
pKd (PICK1, Q9NRD5; [2]): 3.76
pKd (GRIP1_5, Q9Y3R0; [2]): below the threshold
pKd (SCRIB_2, Q14160; [2]): 4.61
